How the values were obtained:
[1] = molecular target: T1, human CD30 (human, UniProt P28908 19-595); assay: cell-based or functional assay
T1 sequence: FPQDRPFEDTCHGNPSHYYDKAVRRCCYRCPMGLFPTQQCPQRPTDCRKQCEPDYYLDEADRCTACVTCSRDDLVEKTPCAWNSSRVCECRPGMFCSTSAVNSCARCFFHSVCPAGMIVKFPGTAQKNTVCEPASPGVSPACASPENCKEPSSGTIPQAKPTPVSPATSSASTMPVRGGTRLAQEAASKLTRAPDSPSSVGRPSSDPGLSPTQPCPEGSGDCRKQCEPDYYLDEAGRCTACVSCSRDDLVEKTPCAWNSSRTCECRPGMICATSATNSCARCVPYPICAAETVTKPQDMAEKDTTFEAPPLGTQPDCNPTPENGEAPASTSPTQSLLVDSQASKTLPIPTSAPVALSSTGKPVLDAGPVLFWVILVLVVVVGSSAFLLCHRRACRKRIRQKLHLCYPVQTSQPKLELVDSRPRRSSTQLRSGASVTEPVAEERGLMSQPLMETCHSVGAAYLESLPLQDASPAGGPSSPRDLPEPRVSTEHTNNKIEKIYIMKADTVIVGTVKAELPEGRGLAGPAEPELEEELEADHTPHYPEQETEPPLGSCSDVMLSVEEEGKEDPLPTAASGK

[2] = molecular target: T1, human CD30; assay: flow cytometry, HDLM-2 cells
Experimental: (§1) Binding of CD3×CD30 bispecific antibodies to two CD30-expressing human tumor cell lines SU-DHL-1 (ALCL; ATCC, cat. no. ACC 356) and HDLM-2 (HL; ATCC, cat. no. CRL-2965) was analyzed […] by flow cytometry.
(§2) Cells (3×10⁴ cells/well) were incubated in polystyrene 96-well round-bottom plates (Greiner bio-one, cat. no. 650180) with serial dilutions of antibodies (range 0.0046 to 10 μg/mL in 3-fold dilution steps) in 50 μL staining buffer at 4° C. for 30 min. After washing twice in staining buffer, cells were incubated with 50 μL secondary antibody at 4° C. for 30 min. […] Next, cells were washed twice in staining buffer, resuspended in 100 μL staining buffer supplemented with TO-PRO-3 iodide (Thermo Fisher Scientific; cat. no. T3605; 1:8000 dilution) and analyzed on a FACSCelesta flow cytometer (BD Biosciences, USA). Live cells were gated based on FSC/SSC and absence of TOPRO-3 staining. Binding curves were analyzed by non-linear regression of log-transformed data (sigmoidal dose-response with variable slope, four parameters) using GraphPad Prism V7.02 software (GraphPad Software, San Diego, CA, USA).

[3] = molecular target: T2, rhesus monkey (Macaca mulatta) CD30 (rhesus monkey, UniProt P28908 19-595 (human entry)); assay: flow cytometry, Expi293F cells transfected with rhesus monkey CD30
T2 construct: also called mmCD30
T2 chain: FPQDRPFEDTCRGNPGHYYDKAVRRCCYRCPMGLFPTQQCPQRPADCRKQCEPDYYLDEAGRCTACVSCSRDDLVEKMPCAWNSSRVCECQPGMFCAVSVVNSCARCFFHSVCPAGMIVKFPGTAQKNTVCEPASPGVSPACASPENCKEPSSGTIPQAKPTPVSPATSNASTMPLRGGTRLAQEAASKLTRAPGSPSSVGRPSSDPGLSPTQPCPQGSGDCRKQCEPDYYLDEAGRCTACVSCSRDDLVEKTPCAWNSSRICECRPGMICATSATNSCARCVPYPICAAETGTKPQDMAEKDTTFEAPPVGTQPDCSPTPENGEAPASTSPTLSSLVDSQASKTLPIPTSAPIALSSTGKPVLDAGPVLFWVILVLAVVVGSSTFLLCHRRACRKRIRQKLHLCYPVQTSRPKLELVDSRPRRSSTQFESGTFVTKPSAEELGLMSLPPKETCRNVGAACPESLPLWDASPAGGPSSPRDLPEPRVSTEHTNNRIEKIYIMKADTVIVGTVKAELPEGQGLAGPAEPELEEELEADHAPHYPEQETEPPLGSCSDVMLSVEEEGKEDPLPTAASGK
Experimental: Cells (3×10⁴ cells/well) were incubated in polystyrene 96-well round-bottom plates (Greiner bio-one, cat. no. 650180) with serial dilutions of antibodies (ranging from 0.005 to 10 μg/mL in 3-fold dilution steps) in 100 μL staining buffer at 4° C. for 30 min. Experiments were performed in technical duplicate. After washing twice in staining buffer, cells were incubated in 50 μL secondary antibody at 4° C. for 30 min. As a secondary antibody, R-PE-conjugated goat-anti-human IgG (Jackson ImmunoResearch, UK; cat. no. 109⁻¹¹⁶-098) diluted 1:400 in staining buffer was used. Cells were washed twice in staining buffer, resuspended in 30 μL staining buffer containing 0.4% EDTA and analyzed on an iQue Screener (Intellicyt Corporation, USA). Binding curves were analyzed using non-linear regression (sigmoidal dose-response with variable slope) using GraphPad Prism V9.0.0 software (GraphPad Software, San Diego, CA, USA).

[4] = molecular target: T1, human CD30; assay: flow cytometry, SU-DHL-1 cells
Experimental: as §1, §2

EC50 (read off the curve) [2]	EC50 (read off the curve) [3]	EC50 (read off the curve) [4]	Binder	T-cell mediated cytotoxicity of Karpas-299 cells, IC50 average [1]	T-cell mediated cytotoxicity of Karpas-299 cells, maximum lysis average [1]
~0.1 mg/L	~0.3 mg/L	~0.2 mg/L	bsG1-huCD3-FEALxCD30-HRS-3-FEAR (bispecific antibody, human IgG1, kappa, lambda, Bispecific IgG1 made by controlled Fab-arm exchange) heavy 1: not shown light 1: not shown heavy 2: QVQLQQSGAELARPGASVKMSCKASGYTFTTYTIHWVRQRPGHDLEWIGYINPSSGYSDYNQNFKGKTTLTADKSSNTAYMQLNSLTSEDSAVYYCARRADYGNYEYTWFAYWGQGTTVTVSSASTKGPSVFPLAPSSKSTSGGTAALGCLVKDYFPEPVTVSWNSGALTSGVHTFPAVLQSSGLYSLSSVVTVPSSSLGTQTYICNVNHKPSNTKVDKRVEPKSCDKTHTCPPCPAPEFEGGPSVFLFPPKPKDTLMISRTPEVTCVVVAVSHEDPEVKFNWYVDGVEVHNAKTKPREEQYNSTYRVVSVLTVLHQDWLNGKEYKCKVSNKALPAPIEKTISKAKGQPREPQVYTLPPSREEMTKNQVSLTCLVKGFYPSDIAVEWESNGQPENNYKTTPPVLDSDGSFFLYSRLTVDKSRWQQGNVFSCSVMHEALHNHYTQKSLSLSPG light 2: DIVMTQSPKFMSTSVGDRVTVTCKASQNVGTNVAWFQQKPGQSPKVLIYSASYRYSGVPDRFTGSGSGTDFTLTISNVQSEDLAEYFCQQYHTYPLTFGGGTKLEINRTVAAPSVFIFPPSDEQLKSGTASVVCLLNNFYPREAKVQWKVDNALQSGNSQESVTEQDSKDSTYSLSSTLTLSKADYEKHKVYACEVTHQGLSSPVTKSFNRGEC	0.068 mg/L	47.5%
~0.4 mg/L	~0.3 mg/L	~0.3 mg/L	bsG1-huCD3-FEALxCD30-T105-FEAR (bispecific antibody, human IgG1, kappa, lambda, Bispecific IgG1 made by controlled Fab-arm exchange; also called bsIgG1-huCD3-FEALxCD30-T105-FEAR) heavy 1: not shown light 1: not shown heavy 2: not shown light 2: DIVMTQSQKFMSTSVGDRVSVTCKASQNVNTNVAWYQQKPGQSPEALIYSASYRYSGVPDRFTGSGSGTDFTLTISNVQSEDLAEYFCQQYNSYPLTFGSGTKLEIKRTVAAPSVFIFPPSDEQLKSGTASVVCLLNNFYPREAKVQWKVDNALQSGNSQESVTEQDSKDSTYSLSSTLTLSKADYEKHKVYACEVTHQGLSSPVTKSFNRGEC	0.042 mg/L	52.6%

Source: patent US20260234255A1 (Genmab, published 2026)
